Laboratory results as given in the DeepSol protein solubility set.

Test: soluble on expression in E. coli; label from the status in PepcDB or PDB records

Sequence	soluble on expression in E. coli
MSLSDSENGGSKTAILCNDLADSYLESYPTVTLEDGVTRTYHNGVYQECRNKYIINNRMMDIAEDMGIVLTPKQIQDALEIVRNKTPFTESKTPINLIPVGNGVLDINTMELSDYSPETVLLTKFPRDYNPSAATPSKFMEMLNTTFDGSEEQIKLVQEMFGYCFLRSYFLEVIFFLIGNGRNGKTTLLSILGALLGGEESGHISSLSFKDLSEPKNENMLCDLYGRYANICGDTGKHKIKETDYIKKVTGNDFVRARKLYKDSFNFKSFAKVILAFNQLPEVDDFSDGFKRRIRIIEFNHKFEDGAGANKNIEAEITGDEEEMEGIFLWAMEGLKRILENNSFSDKRSIVSRGMEYARKSNPMHYFVRECIVESPGHFVNKADLIEKYVEYAEYNKMPQLTPQAFKKGLIAECTDISINTFEKRDQTKTGRPFGFMHIDIDLESWKKHTGKADNASPVEPKEDSKQTQFKELEIQIATTDEEIRKVAEDMASTASEGHHHHHH	soluble
MSLEWTKLTGTLKPDKDVKRGMLAIQPLGKGQFQLDVVSLFPSDTWDNGKSVFRADIMQNLKEYAPDFIRFPGGCIVHGVNEATMYHWKKTIGPIENRPGQWSKWAPYYRTDGIGYHEFYELCEYLGADAMYVIPTGMICTGWVKQSSPWNFIQPDVDLDAYIQDALDAIEYAIGPETSKWGALRVKNGHPKPFPLKYIEIGNEDFGPVYWERYEKIYQALHRQYPDLIYIANSIIGKENDDKRIDIAKFVNPKNVKVFDEHHYQPVEWACKQHYRFDNYERGIADLFVGELGIDGKYPYNLLASGAVRMSLERNGDLNPLLAERPVMRHWDFSEHRQLHSMLINGVDCSIRTSFYYLSKMFRDHTFDVCLDAGIQGMKGLQNVFVTMGYDSESKEYILKLINLRKQEVVLQTAVKGFGKKIQAQKITLSLEPGKNNTPEMPDAVKPVQSTVTLDLNKDLQLEASSMIVYRFKEGHHHHHH	not soluble
MNKAKPKVVWASVYEGSAYIAPKDSYVDNMIKMAGGINACASIDSNEGRVSIEQLHEVAKDADIFVYSSSSDYAPNLDSIKSSAPVLADLDVVKNGNLWVFAPDYYQSVDKTDELIVDLVEMFHPGTTGEKIKHYINYDKLEHHHHHH	soluble
MGSDKIHHHHHHMKNAAISDSTLVSQYIQGNEEAFAELIKRHKSKVYSTIYLIVKDRYLAEDLLQDVFIKVIHKMKGGQYNDEGKFLPWVVRIAHNLAIDYFRRNKRYPTIVMDEGMNIFNSLNFSEDSTESIQIKGENEALIRSLIHKLPESQREVVLMRHFSDMSFQEIADSTGVSINTALGRMRYALINLRKELTKQPKPIVYDKNVYPK	not soluble
MSQPLLAVNGLMMRFGGLLAVNNVSLELREREIVSLIGPNGAGKTTVFNCLTGFYKPTGGTITLRERHLEGLPGQQIARMGVVRTFQHVRLFREMTVIENLLVAQHQQLKTGLFSGLLKTPAFRRAQSEALDRAATWLERIGLLEHANRQASNLAYGDQRRLEIARCMVTQPEILMLDEPAAGLNPKETKELDELIAELRNHHNTTILLIEHDMKLVMGISDRIYVVNQGTPLANGTPEEIRNNPDVIRAYLGEA	soluble
MHRYPRPVSPPVYGPYGSGGHYNPYFHYGVSSFPSAPVHWPHLPSGHAAPPSYPMPYPKPGPLLPPPRPSFLAQFKNSDGTYDINKMMSTVGQMINTVNQVNGVLKGLLGTFKK	not soluble
GPGMASSPRPKMDAILTEAIKACFQKSGASVVAIRKYIIHKYPSLELERRGYLLKQALKRELNRGVIKQVKGKGASGSFVVVQKSRKT	soluble
MSSSGPTRSISTGTKPPTESLYKREVAQMMQQHQQQQRINNNKGYRPQGASPPKELKRRFYDDGSVTPSSRQSRNERSMDGRPSPEHGAIIGENRKSSPPAEEKYSNSGTRCKLPIPDMFRFYDKEMANEKLESLGLADEDDKKTLTKMRRHSIWMDNQLLNQLQASESNKQYLSAKKQMRDILITRIDHIDNAHKNVNSLFVHDFVHDYIILFKNKVSKSEKFLLCLKKINN	not soluble
AIYHLTAKTGSRSGGQSARAKADYIQREGKYARDMDEVLHAESGHMPEFVERPADYWDAADLYERANGRLFKEVEFALPVELTLDQQKALASEFAQHLTGAERLPYTLAIHAGGGENPHCHLMISERINDGIERPAAQWFKRYNGKTPEKGGAQKTEALKPKAWLEQTREAWADHANRALERAGH	soluble
MRRRQRRQSSNIFHMLTKNQIVELREAFNFMDVNSDTFVDRGDLENFLASIGSPFSESEIDEMMAEGGDSMTYMLFLTMIGERLSCTDSEKSIFNALKEFDDNGDGTIDEKVLREWLTEKGDRMADEDVNLLLRDCVENGRIDCRSLTTKMKYGEIINE	not soluble
MSLGRGMQKQRFCLDTSAFTEPSVRKALGVKTVTELTDKVMDLIAEARIKLNISCHIPYPTVYNELMGFLENENCPRDVIVKVDTWLVKKTPNRYEIKIPSEIFYEYVKDLRERINKGMRIGEEHIIKATDMVYELSKKHPEMGKNEIINKVLSKTINTFRNKYRSALRVGTLDSAPDLDVLLLAKELDAAVVASDGGIEKWAQRLGLRFVDASDFPFMLEEYLKHNDRHLRIKYEGHHHHHH	soluble
MLRFYAMKQITEPGTYEIRGEVAEGDFSWDATNFAGFFYDVNDDVSTESLTVTGLNGGNVIPEGGLVYETTIQMVDYEYSKPSVGWDQFPVLGFFAEEYIPINADKADKLAKLVLDSDDKYTIRTGEQLDLGEGYAIEAKQVDVDGEKVWLEFTKDGEFVDDEIISVVSGSDNTWEVELDDIQDEDDVVVLRVHVNQVFQGAVDSIAQIEGIWLIDYANAMKIESDDEFGDLDNVKINGATLTITNEDTFTLTRDDEVEIGQGMFFKVADTAASDLRYYPFVEKTIDGEVVLEHHHHHH	soluble
MSRLGYVMTKASAKNFKVYINGSARGYRNIIINGAKSWNPSPYLNTVTMGNDVKPNFTVSSSNTNKGSVLAVCNTTYYKSNKLIVKNEITLYKGFRSLSNNHKIETVAHEFGHGFGLGHVKTRNAIMLDKGFINKTKPQKLEHHHHHH	not soluble
SAVVPASLSGQDVGSFAYLTIKDRIPQILTKVIDTLHRHKSEFFEKHGEEGVEAEKKAISLLSKLRNELQTDKPFIRLVEKFVDTDIWNQYLEYQQSLLNESDGKSRWFYSPWLLVECYIDRRIHEAIIQSPPIDYFDVFKESKEQNFYGSQESIIALCTHLQQLIRTIEDLYENQLKDEFFKLLQISLWGNKCDLSLSGGESSSQNTNVLNSLEDLKPFILLNDMEHLWSLLSNCKKTREKASATRVYIVLDNSGFELVTDLILADFLLSSELATEVHFYGKTIPWFVSDTTIHDFNWLIEQVKHSNHKWMSKCGADWEEYIKMGKWVYHNHIFWTLPHEYCAMPQVAPDLYAELQKAHLILFKGDLNYRKLTGDRKWEFSVPFHQALNGFHPAPLCTIRTLKAEIQVGLQPGQGEQLLASEPSWWTTGKYGIFQYDGPL	not soluble
MIRLSNENTIFFMDKENVPIASCQSGDTVIFETKDCFSDQITNEEQALTSIDFNRVNPATGPLYVEGARRGDMLEIEILDIKVGKQGVMTAAPGLGALGESLNSPTTKLFPIEGDDVVYSTGLRLPLQPMIGVIGTAPPGEPINNGTPGPHGGNLDTKDIKPGTTVYLPVEVDGALLALGDLHAAMGDGEILICGVEIAGTVTLKVNVKKERMFPLPALKTDTHFMTIASAETLDAAAVQATKNMATFLANRTALSIEEAGMLLSGAGDLYVSQIVNPLKTARFSLALHYFEKLGVDLCNLEHHHHHH	soluble
MSLGTNPFYKIKREGEISLKLKNQLFRLYFLLIYSSLENLQMADKKSPVAVGMTVTPSNQANFVDAGSTTLMNKPGEPTFKLGINLNKVEFKCTEDRKPISVNLKLHNPMAVTVSYKVRCTSADIFRVQPPLGFVKPNETVSIVIWYQNQDKKDAISKNHYFAFYHTTSDGRTARELWANSKVEGVRRLPASFLSTK	not soluble
MTAPPPPLVELPPGSMVERWSITKKLGEGGCGAVYLCTDATGKYALKVEGISEAMQVLKMEVLVLGELTKRGSRHFCKIEDKGRYGSFNYVVMTLVGKSLQDLRKGTAQQCLSLACSLSVGIQSLEALEDLHNIGYLHRDVKPGNYTIGRAELNELRKVYILDFGMARKFTDNNGVIRKPRAAAGFRGTVRYAPIACHKNQELGRKDDVEVWLYMQVELTVGRVPWKEITDMNAVGQAKQAIRNTPEKMFVFPCPANELKEIMKMVDSWDYFADPNYADCYRLMKQTLANCGKPEYPYDWEPGMPLNYMVK	not soluble
MAHHHHHHMFRDGYSLDSVCHRLRYEIGVPHDGVYLHEPPGGSFAAVTQFGVAVGVTREQLPHASRHYNVHALIFDDRGYHALDELPRLSVAPQAYLHRILLRCVSGDEAAVAQRLRHLSSNGFINYFGLESFGIGSNTLFDMAAFAFRREPHRSVGAYLQTLAECSPLHHQPYLSYANAEESTVAGAVAEWLRVCERAKLPRETRELLRKLHCYHLSQCHPSDATTISMEDVWKACPIMHRAEQSAAAFVWNAMASQRLLSFGSRPVKGDLVCRIGNRGAIEIAEVASDTDASHYTIDDVVLPIPCGGTPAAELRYPTHSVNEAFFTQFAKKHSLSFLFNSGVDPTPRAAATLGPYRRLVSRPRNLQAAVLQDPSSCAALKSDLFLLQEHQPTEGWSLDYRQRVREPSNFNVSERFRERMSCIRKRRAGEHSVALAFVLPAGSSPWVALREAFHMHYGTFHDFYGVS	not soluble
MPGVTVKEIDQHVLTKNMAAFLKKSGKIFVPEQAVYMKTGKFKETAPTDDDWFYTRCASIMRHLYLRSPAGVGAFTKVYSGRKRNGVRPSKHCRSSDGCIRKALQALEAANMVERHPDGGRKLTPQGQRNLDRIANKIVAKQRERSAPVSMIITTLEHHHHHH	soluble
MEFKVTLTTEEIVRGLKHYRRIAKQDVLRAPETPNPEVFRRHAEARREVYAKLAEVAEREGPEAAVAYALELYRSLPFVTGTPEDQYPEIKGQENALENFFLMIGLDPKVRREARKARKPLQ	soluble
MGSDKIHHHHHHMVELQRVTASSLQQSFAGDVYNTGVYLKRTFSDINTHLVTAIGQDSFSQAMLQRFEDEKINTDMVFQSTDKIAGLYAIQTDSKGERSFTYWRNDSAAKQIMQFIGDAAISKISQADMVFFSGISLAVINEEDRDAFWLLIKQCKQAGVSIVFDPNYRARMWHSPDQAKAQFDIAFSVADVVLPGVDDFNQLYGISSVEDIIAFCQPYDINELVIKNGENGINYVINGQQQHFSITPVTNVVDTTSAGDSFNGVYLGARLTGADISTAIKLASQAAGFVIQHKGAIAPKIEFHQFIERQKLIMQ	not soluble
MAHHHHHHMQNSVGDVINLISKSEIRYEGKLHSINTEENTVSLSNVRIYGTEGRKGGGVEEVPPTEQLFEFIVFRGSDIKDLTVFRDSSSPQARDPAIVEVHAPARGRGGRAAAAAPAASATAASSAATRGSRSFYDEAQPYSRGGGGGRRGGYGAGRYNNNNGGGSNNSNSNRNHRGGYGGRGGSGNYRRNYRDYHTGQDFKPADIGATEKFEGDFDFAKCREEFEKKKSEFEKAKEDAKSHAKAYDKSSFFDTISCDQKEKNNMNRAEMRKADTETFGPEMVSSMRGFRRGRGGRGRYQQR	not soluble
MREKLTVIKVGGKIVEEEATLLQLLNDFAAISGHKVLVHGGGRSATKIAAQLGIESKMVNGRRITDAETLKVVTMVYGGLVNKNIVAGLQARGVNALGLTGADMNVIRSVKRPVKEVDYGFVGDVEKVDASLLADLIHKGVVPVMAPLTHDGQGNMLNTNADTIAGETAKALSALFDVTLVYCFEKKGVLRDENDDDSVIPEITRAEFEQYVADGVIQGGMIPKLENSFEAINAGVTEVVITLASAIKDNEGTRIKK	not soluble
SSVDPMTYEAQFFGFTPQTCMLRIYIAFQDYLFEVMQAVEQVILKKLDGIPDCDISPVQIRKCTEKFLCFMKGHFDNLFSKMEQLFLQLILRIPSNILLPEDKCKETPYSEEDFQHLQKEIEQLQEKYKTELCTKQALLAELEEQKIVQAKLKQTLTFFDELHNVGRDHGTSDFRESLVSLVQNSRKLQNIRDNVEKESKRLKIS	soluble
